As usually defined, the Kd is the concentration at which binding is half-saturated.

Data set [1] deals with adiponectin (HMW) (Homo sapiens) (UniProt Q15848). To be noted: cited from earlier work.
Data set [2] deals with the molecule itself. Put plainly: native gel or EMSA; native-PAGE of purified or recombinant adiponectin, 50 ng adiponectin, Western blot. (Mobility shift assays separate free from complexed probe on a gel.)
Data set [3] concerns the molecule itself. Put plainly: native gel or EMSA; native-PAGE of mouse serum, 50 ng adiponectin, Western blot.

Chain of adiponectin (HMW) (Homo sapiens) (Q15848 19-244): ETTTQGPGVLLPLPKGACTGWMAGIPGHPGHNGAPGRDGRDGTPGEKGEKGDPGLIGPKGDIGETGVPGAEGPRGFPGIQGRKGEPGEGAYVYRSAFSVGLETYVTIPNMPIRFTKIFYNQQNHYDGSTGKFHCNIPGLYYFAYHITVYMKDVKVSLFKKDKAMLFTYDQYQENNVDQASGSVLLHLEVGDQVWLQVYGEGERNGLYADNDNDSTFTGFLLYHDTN

Consider T-cadherin (from UniProt P55290), for which, in data set [1], the Kd is 1 nM.

B1: Full-length mammalian recombinant mouse adiponectin (ligand, UniProt Q60994 18-247, looked up)
chain: EDDVTTTEELAPALVPPPKGTCAGWMAGIPGHPGHNGTPGRDGRDGTPGEKGEKGDAGLLGPKGETGDVGMTGAEGPRGFPGTPGRKGEPGEAAYVYRSAFSVGLETRVTVPNVPIRFTKIFYNQQNHYDGSTGKFYCNIPGLYYFSYHITVYMKDVKVSLFKKDKAVLFTYDQYQEKNVDQASGSVLLHLEVGDQVWLQVYGDGDHNGLYADNVNDSTFTGFLLYHDTN
notes: adiponectin, mouse, full-length recombinant, produced in HEK293 cells; contains less 6-mer and HMW multimer than serum adiponectin; the secreted product probably lacks the signal peptide; also called recombinant adiponectin; full-length recombinant adiponectin produced in HEK293 cells; source: bought: BioVendor (RD272023100), produced in HEK293 cells
B1: the binding result in data set [2] was “binds”.

B2: native mouse adiponectin in mouse serum (ligand, UniProt Q60994 18-247, looked up)
chain: EDDVTTTEELAPALVPPPKGTCAGWMAGIPGHPGHNGTPGRDGRDGTPGEKGEKGDAGLLGPKGETGDVGMTGAEGPRGFPGTPGRKGEPGEAAYVYRSAFSVGLETRVTVPNVPIRFTKIFYNQQNHYDGSTGKFYCNIPGLYYFSYHITVYMKDVKVSLFKKDKAVLFTYDQYQEKNVDQASGSVLLHLEVGDQVWLQVYGDGDHNGLYADNVNDSTFTGFLLYHDTN
notes: adiponectin, mouse, circulating protein of serum; multimers (6-mer and HMW multimer) seen by native-PAGE; Used both as whole serum and as adiponectin purified from serum; Mixture of multimers; also called mouse serum adiponectin; native adiponectin; source: endogenous, serum of C57BL6J mice, used as serum without processing; also purified from mouse serum (Fukuda et al., 2017)
B2: the binding result in data set [3] is given as “binds”.
